In paper PMC8215294:
Numbering of substitutions follows the chain as printed. Names and notes keep the numbering of the source. Values joined by “and” are separate entries in the source; they are usually repeats but may differ in a detail not shown here. Equal values may be shown once.

Key:
[1] = target: Arabidopsis thaliana thimet oligopeptidase TOP1, full-length (A. thaliana) (UniProt Q94AM1); experiment: SEC; purified His-tagged TOPs treated 30 min at RT with DTTred, DTTox, GSH or GSSG, purified again and dialysed; XBridge BEH200A SEC column, 50 mM sodium phosphate, 150 mM NaCl, 0.02% NaN3, pH 7.0
Q94AM1 = experiment: as above
TOP1^C548A, Q94AM1 = target: T1, TOP1^C548A, Q94AM1; experiment: size-exclusion chromatography (SEC), peak area quantification; settings: chain shown with the change; treatment (Ctrl or GSSG) not stated for this panel; parent: est. 38; read off a plot
T1 chain: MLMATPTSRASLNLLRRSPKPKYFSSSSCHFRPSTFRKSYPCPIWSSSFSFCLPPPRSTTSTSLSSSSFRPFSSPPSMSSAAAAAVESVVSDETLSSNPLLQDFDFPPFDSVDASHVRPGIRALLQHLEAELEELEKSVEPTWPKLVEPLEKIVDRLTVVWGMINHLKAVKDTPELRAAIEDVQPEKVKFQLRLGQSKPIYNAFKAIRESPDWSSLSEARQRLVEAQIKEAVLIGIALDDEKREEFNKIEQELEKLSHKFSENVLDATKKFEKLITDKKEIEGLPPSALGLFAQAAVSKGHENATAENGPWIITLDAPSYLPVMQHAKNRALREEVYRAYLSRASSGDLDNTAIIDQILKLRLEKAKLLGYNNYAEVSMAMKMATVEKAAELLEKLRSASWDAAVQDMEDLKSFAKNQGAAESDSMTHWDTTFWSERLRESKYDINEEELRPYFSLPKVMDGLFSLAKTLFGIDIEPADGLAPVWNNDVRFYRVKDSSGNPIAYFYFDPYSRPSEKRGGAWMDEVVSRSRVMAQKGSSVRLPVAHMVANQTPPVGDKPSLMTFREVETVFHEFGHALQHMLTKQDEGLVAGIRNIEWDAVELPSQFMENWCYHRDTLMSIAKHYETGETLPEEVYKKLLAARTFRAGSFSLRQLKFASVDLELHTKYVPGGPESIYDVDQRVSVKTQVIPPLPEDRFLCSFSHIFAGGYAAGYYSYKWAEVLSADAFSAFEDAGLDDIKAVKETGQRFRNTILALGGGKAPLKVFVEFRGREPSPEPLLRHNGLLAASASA

TOP1^C29A, Q94AM1 = target: T2, TOP1^C29A, Q94AM1; experiment: as above; settings: chain shown with the change; treatment (Ctrl or GSSG) not stated for this panel; parent: est. 38; read off a plot
T2 chain: T1 chain with C29A, A548C

TOP1^C42A, Q94AM1 = target: T3, TOP1^C42A, Q94AM1; experiment: as above; settings: chain shown with the change; treatment (Ctrl or GSSG) not stated for this panel; parent: est. 38; read off a plot
T3 chain: T1 chain with C42A, A548C

TOP1^C611A, Q94AM1 = target: T4, TOP1^C611A, Q94AM1; experiment: as above; settings: chain shown with the change; treatment (Ctrl or GSSG) not stated for this panel; parent: est. 38; read off a plot
T4 chain: T1 chain with A548C, C611A

TOP1^C699A, Q94AM1 = target: T5, TOP1^C699A, Q94AM1; experiment: as above; settings: chain shown with the change; treatment (Ctrl or GSSG) not stated for this panel; parent: est. 38; read off a plot
T5 chain: T1 chain with A548C, C699A

## Arabidopsis thaliana thimet oligopeptidase TOP1, full-length (from UniProt Q94AM1 83-791) (enzyme)
[1]
  stoichiometry N: 2 and 3

## Arabidopsis thaliana thimet oligopeptidase TOP1, full-length
Q94AM1
  monomer/dimer ratio (SEC peak area) after DTTred or DTTox: ∼7/1 under both conditions
  monomer/dimer ratio (SEC peak area) after GSH: 3/1 and 2/1 post-GSH and -GSSG, respectively
  monomer/dimer ratio (SEC peak area) after GSSG: 3/1 and 2/1 post-GSH and -GSSG, respectively

B1: Arabidopsis thaliana thimet oligopeptidase TOP1, full-length, Q94AM1 C548A (protein)
chain: T1 chain
TOP1^C548A, Q94AM1
  other: percent dimer: 18%

B2: Arabidopsis thaliana thimet oligopeptidase TOP1, full-length, Q94AM1 C29A (protein)
chain: T1 chain with C29A, A548C
TOP1^C29A, Q94AM1
  other: percent dimer: 2.5%

B3: Arabidopsis thaliana thimet oligopeptidase TOP1, full-length, Q94AM1 C42A (protein)
chain: T1 chain with C42A, A548C
TOP1^C42A, Q94AM1
  other: percent dimer: 12%

B4: Arabidopsis thaliana thimet oligopeptidase TOP1, full-length, Q94AM1 C611A (protein)
chain: T1 chain with A548C, C611A
TOP1^C611A, Q94AM1
  other: percent dimer: 3.5%

B5: Arabidopsis thaliana thimet oligopeptidase TOP1, full-length, Q94AM1 C699A (protein)
chain: T1 chain with A548C, C699A
TOP1^C699A, Q94AM1
  other: percent dimer: 17%
